Publication PMC11938383, “Antibodies targeting ADAM17 reverse neurite outgrowth inhibition by myelin-associated inhibitors” (Life Science Alliance, 2025)
Each block holds one molecule with its values, some of them ahead of it.

What was measured:
p75-Fc (human) = p75-Fc (human) (UniProt P08138); assay: BLI; Blitz (Forte Bio); 5-mer complex (via Lingo-Fc) or p75-Fc loaded at 50 μg/ml on protein A sensors; ADAM17 ECD (E406A) or D+C in solution; HBS (20 mM Hepes, 150 mM NaCl pH 7.4); apparent KD
[1] = target: neuron-myelin 5-mer signaling complex (NgR1, Lingo-1-Fc, p75, MAG, GT1b-Na) (mouse | human) (UniProt Q9D1T0); assay: as above
[2] = target: the molecule itself; assay: SEC; individual proteins (Lingo-1, NgR1, p75 31-250) run alone on the SD-200 column, in the presence of GT1b-Na
[3] = target: T1, neuronal receptor/co-receptor/p75 complex (Lingo-1-Fc, NgR1, p75, formed with GT1b-Na) (mouse | human, UniProt Q9D1T0 35-516; Q9BZR6 30-430; P08138 31-210); assay: pull-down; Lingo-1-Fc as bait on protein A-Sepharose; untagged NgR1, p75 (31-210) and MAG as prey; NgR1 and p75 pre-incubated with GT1b-Na (molar ratio 1:10), with or without GT1b-Na; 10 mM Hepes pH 7.4, 150 mM NaCl, 0.05% Triton-X100; 25°C, 1 h; two washes; SDS-PAGE; settings: both partners purified
T1 construct: Lingo-1, mouse, residues 35-516; NgR1, human, residues 30-430; p75, human, residues 31-210 (the version used in the pull-down assays); also called NgR1, Lingo-1, p75 complex; neuronal complex; source: assembled from purified HEK293 proteins on protein A-Sepharose in the presence of GT1b-Na; not shown: Fc, C-terminal, kept; Fc, C-terminal, cleaved; copies: + +
T1 sequence (looked up) 1: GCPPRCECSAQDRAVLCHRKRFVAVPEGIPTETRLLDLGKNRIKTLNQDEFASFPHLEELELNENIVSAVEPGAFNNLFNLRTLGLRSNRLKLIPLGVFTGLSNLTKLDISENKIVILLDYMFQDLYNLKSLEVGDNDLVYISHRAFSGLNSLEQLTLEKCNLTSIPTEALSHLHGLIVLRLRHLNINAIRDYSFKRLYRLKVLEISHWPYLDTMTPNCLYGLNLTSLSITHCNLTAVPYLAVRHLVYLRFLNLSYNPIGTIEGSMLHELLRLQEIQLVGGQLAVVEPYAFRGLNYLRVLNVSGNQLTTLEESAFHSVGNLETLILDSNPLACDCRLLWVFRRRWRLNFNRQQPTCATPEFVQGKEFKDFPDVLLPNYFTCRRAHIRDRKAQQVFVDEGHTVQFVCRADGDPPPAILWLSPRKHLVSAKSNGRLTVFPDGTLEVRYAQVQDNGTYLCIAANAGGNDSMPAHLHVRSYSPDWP
T1 sequence (looked up) 2: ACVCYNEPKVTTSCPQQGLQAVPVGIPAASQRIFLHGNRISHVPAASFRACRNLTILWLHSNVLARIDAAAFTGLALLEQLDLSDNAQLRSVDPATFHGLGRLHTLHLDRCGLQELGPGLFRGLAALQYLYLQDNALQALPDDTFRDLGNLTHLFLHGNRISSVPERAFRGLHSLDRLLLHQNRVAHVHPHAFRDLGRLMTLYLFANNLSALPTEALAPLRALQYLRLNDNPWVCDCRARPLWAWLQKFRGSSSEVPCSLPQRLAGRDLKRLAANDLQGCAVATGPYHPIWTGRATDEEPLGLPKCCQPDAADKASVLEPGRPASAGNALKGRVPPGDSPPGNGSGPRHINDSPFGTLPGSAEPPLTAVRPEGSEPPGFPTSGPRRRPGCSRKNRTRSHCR
T1 sequence (looked up) 3: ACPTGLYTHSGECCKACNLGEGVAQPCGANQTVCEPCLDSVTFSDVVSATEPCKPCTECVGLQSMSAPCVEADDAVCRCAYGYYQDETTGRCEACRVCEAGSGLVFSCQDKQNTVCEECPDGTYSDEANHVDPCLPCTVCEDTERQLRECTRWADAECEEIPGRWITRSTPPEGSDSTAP

[4] = target: ADAM17 ectodomain (ECD), residues 215-650, active-site mutant E406A (human, UniProt P78536 215-650, E406A); assay: BLI

- Kd (p75-Fc (human)): 350 nM
- Kd [1]: 350 nM
Molecule: ADAM17 D+C (disintegrin + cysteine-rich domain region) (from UniProt P78536 474-646) (domain or fragment)

B1: Lingo-1 ectodomain (35-516) (domain or fragment, mouse, UniProt Q9D1T0 35-516, looked up)
chain: GCPPRCECSAQDRAVLCHRKRFVAVPEGIPTETRLLDLGKNRIKTLNQDEFASFPHLEELELNENIVSAVEPGAFNNLFNLRTLGLRSNRLKLIPLGVFTGLSNLTKLDISENKIVILLDYMFQDLYNLKSLEVGDNDLVYISHRAFSGLNSLEQLTLEKCNLTSIPTEALSHLHGLIVLRLRHLNINAIRDYSFKRLYRLKVLEISHWPYLDTMTPNCLYGLNLTSLSITHCNLTAVPYLAVRHLVYLRFLNLSYNPIGTIEGSMLHELLRLQEIQLVGGQLAVVEPYAFRGLNYLRVLNVSGNQLTTLEESAFHSVGNLETLILDSNPLACDCRLLWVFRRRWRLNFNRQQPTCATPEFVQGKEFKDFPDVLLPNYFTCRRAHIRDRKAQQVFVDEGHTVQFVCRADGDPPPAILWLSPRKHLVSAKSNGRLTVFPDGTLEVRYAQVQDNGTYLCIAANAGGNDSMPAHLHVRSYSPDWP
notes: Lingo-1 (LINGO-1), mouse, ectodomain, residues 35-516; Used in size-exclusion chromatography; It migrates as a tetramer; source: HEK293, purified (protein A Sepharose, size-exclusion on SD-200)
- stoichiometry N [2]: 4

- binding result [3]: binds
B2: MAG (residues 22-504) (domain or fragment, human, UniProt P20916 22-504, looked up)
chain: WGAWMPSSISAFEGTCVSIPCRFDFPDELRPAVVHGVWYFNSPYPKNYPPVVFKSRTQVVHESFQGRSRLLGDLGLRNCTLLLSNVSPELGGKYYFRGDLGGYNQYTFSEHSVLDIVNTPNIVVPPEVVAGTEVEVSCMVPDNCPELRPELSWLGHEGLGEPAVLGRLREDEGTWVQVSLLHFVPTREANGHRLGCQASFPNTTLQFEGYASMDVKYPPVIVEMNSSVEAIEGSHVSLLCGADSNPPPLLTWMRDGTVLREAVAESLLLELEEVTPAEDGVYACLAENAYGQDNRTVGLSVMYAPWKPTVNGTMVAVEGETVSILCSTQSNPDPILTIFKEKQILSTVIYESELQLELPAVSPEDDGEYWCVAENQYGQRATAFNLSVEFAPVLLLESHCAAARDTVQCLCVVKSNPEPSVAFELPSRNVTVNESEREFVYSERSGLVLTSILTLRGQAQAPPRVICTARNLYGAKSLELPFQ
notes: myelin-associated glycoprotein (MAG), human, residues 22-504; also called myelin-associated glycoprotein; source: HEK293, purified (protein A Sepharose, size-exclusion on SD-200); not shown: Fc, C-terminal, cleaved

- Kd [4]: > 10000 nM
B3: p75-Fc (Fc fusion)
chain: ACPTGLYTHSGECCKACNLGEGVAQPCGANQTVCEPCLDSVTFSDVVSATEPCKPCTECVGLQSMSAPCVEADDAVCRCAYGYYQDETTGRCEACRVCEAGSGLVFSCQDKQNTVCEECPDGTYSDEANHVDPCLPCTVCEDTERQLRECTRWADAECEEIPGRWITRSTPPEGSDSTAP

B4: p75 ectodomain (residues 31-250) (domain or fragment, human, UniProt P08138 31-250, looked up)
chain: ACPTGLYTHSGECCKACNLGEGVAQPCGANQTVCEPCLDSVTFSDVVSATEPCKPCTECVGLQSMSAPCVEADDAVCRCAYGYYQDETTGRCEACRVCEAGSGLVFSCQDKQNTVCEECPDGTYSDEANHVDPCLPCTVCEDTERQLRECTRWADAECEEIPGRWITRSTPPEGSDSTAPSTQEPEAPPEQDLIASTVAGVVTTVMGSSQPVVTRGTTDN
notes: p75 (p75 NGF receptor), human, entire ectodomain, residues 31-250; Used in size-exclusion chromatography; migrates as an apparent dimer; One sentence of the methods prints 21-250 for this construct; also called longer version of p75; source: HEK293, purified (protein A Sepharose, size-exclusion on SD-200)
- stoichiometry N [2]: 2
